According to patent US20050276757:

Test system: p120 catenin expressed from a transfected plasmid (exogenous p120, HA-tagged in Example 1)

## ZC1 kinase, over-expressed from a plasmid (active full-length ZC1)
  in vitro phosphorylation (32P-ATP, autoradiography): p120 immunoprecipitated from cells co-expressing ZC1 also showed phosphorylation of p120 in vitro by associated ZC1
